Test results from the supplement of paper PMC7125110.
± gives the standard error. Variants at the floor of the assay were thinned out.

B1: glmS ribozyme (parent)
chain: AUAAAAGCGCCAGAACUACAGAAAUGUAGUUGACGAGGAGGAGGUUUAUCGAAUUUUCGGCGGAUGCCUCCAAA

Variants of: B1
Assay: self-cleavage kobs at 640 uM GlcN6P; higher = faster cleavage; RNA array
Conditions: with glucosamine-6-phosphate
How it was run: (§1)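 The measurements used barcoded ribozyme variants on sequenced MiSeq chips, transcribed in situ by E. coli RNA polymerase and tracked at 37 °C with a hybridised Cy3 probe. Glucosamine-6-phosphate, 40 μM to 10 mM in HEPES/KCl/Mg(OAc)2 buffer, was flowed in while tiles were imaged over ~14 h. Baseline-normalised signals, also normalised to non-cleaving reference variants, gave per-tile medians that were fit to one- or two-exponential decays for kobs. kcat and KM resulted from weighted Michaelis–Menten fits across concentrations.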
With AUAAAAGCGCAAGCACUACAGAAAUGUAGUUGACGAGGAGGAGGUUUAUCGUAUUUUCGGCGGAUGCCUCCAAA [C11A A14C A52U] the “self-cleavage kobs at 640 uM GlcN6P” value was less than 1e-05 s⁻¹.
AUAAAAGCGUCAGAACUACAGAAAUGUAGUUGACGAGGAGGAGGUAUAACGAAUUUUCGGCAGAUGCCUCCAAA [C10U U46A U49A G62A] was tested, and the “self-cleavage kobs at 640 uM GlcN6P” value was less than 1e-05 s⁻¹.
In the case of AUAAAAGCGUCAGAACUACAGAAAUGUAGUUGACGAGGAGGAGGUUUAUCGAAUUUUCGACGGAUGACUCCAAA [C10U G60A C67A], the “self-cleavage kobs at 640 uM GlcN6P” value is reported as less than 1e-05 s⁻¹.
AUAAAAGCGCAAGAACUACAGAAAUGUAGUUGACGAGGAGGAGGUUUAUCGAAGUUUCGGCGGAUGGCUCAAAA [C11A U54G C67G C71A] was tested, and the “self-cleavage kobs at 640 uM GlcN6P” value was 0.0001 ± 4e-05 s⁻¹.
With AUAAAAGCGCAAGCACUACAGAAAUGUAGUUGACGAGGAGGAGAUUUAUCGAAUUUUCGGCGGAUUCCUCCAAA [C11A A14C G44A G66U] the “self-cleavage kobs at 640 uM GlcN6P” value was less than 1e-05 s⁻¹.
In the case of AUAAAAGCGCGAGGACUACAGAAAUGUAGUUGAAGAGGAGUAGGUUUACCGAAUUUUCGGCGGAUGCCUCCAAA [C11G A14G C34A G41U U49C], the “self-cleavage kobs at 640 uM GlcN6P” value is reported as less than 1e-05 s⁻¹.
For AUAAAAGCGCAAGAACUACAGAAAUGUAGUUGACGAGGAGGAGGUUUAUCGACUUUUCGGCGGAUUCCUCCAAA [C11A A53C G66U], the “self-cleavage kobs at 640 uM GlcN6P” value was less than 1e-05 s⁻¹.
With AUAAAAGCGCAAGAACUACAGAAAUGUAGUUGACGAGGAGGAGGUUUAUCGAGUUUUCGGCGAAUGCCUCCAAA [C11A A53G G63A] the “self-cleavage kobs at 640 uM GlcN6P” value was less than 1e-05 s⁻¹.
For AUAAAAGCGCAAGAGCUACAGAAAUGUAAUUGACGAGGAGGAGGUUUAUCGAAUUUUCGGCGGAUGCCUCCAAA [C11A A15G G29A], the “self-cleavage kobs at 640 uM GlcN6P” value was less than 1e-05 s⁻¹.
With AUAAAAGCGCAAGAACUACAGAAAUGUAGUUGACGAGGGGGAGGUUUAUCGAAUUUUCGGCGGAUGCCUCCAAA [C11A A39G] the “self-cleavage kobs at 640 uM GlcN6P” value was 0.000101 ± 2.7e-05 s⁻¹.
With AUAAAAGCGCAAGAACUACAGAAAUGUAGUUAACGAGGAGGAGGUUUAUCGAAUUUUCGGCGGAUUCCUCCAAA [C11A G32A G66U] the “self-cleavage kobs at 640 uM GlcN6P” value was less than 1e-05 s⁻¹.
In the case of AUAAAAGCGCAAGAACUACAGAAAUGUAGUUUACGAGGAGGAGGUUUAUCGAAUUUUCGGCGGAUGCCUGCAAA [C11A G32U C70G], the “self-cleavage kobs at 640 uM GlcN6P” value is reported as 0.000101 ± 4.4e-05 s⁻¹.
In the case of AUAAAAGCGCAAGAAUUACAGAAAUGUAGUUGACGAGGAGGAGGUUUAUCGAAUUUUCGGCGGAUGCCGCCAAA [C11A C16U U69G], the “self-cleavage kobs at 640 uM GlcN6P” value is reported as 0.000429 ± 0.00014 s⁻¹.
With AUAAAAGCGCAAGAUCUACAGAAAUGUAGUUGACGAGGAGGAGGUUUAUCGAAUUUUCGGCGGCUGCCUCCAAA [C11A A15U A64C] the “self-cleavage kobs at 640 uM GlcN6P” value was less than 1e-05 s⁻¹.
With AUAAAAGCGCAAGAACUACAGAAAUGUAGUUGACGAGGUGGAGGCUUAUCCAAUUUUCGGUGGAUGCCUCCAAA [C11A A39U U45C G51C C61U] the “self-cleavage kobs at 640 uM GlcN6P” value was less than 1e-05 s⁻¹.
AUAAAAGCGCAAGAACUACAGAAAUGUAGUUGACGAGGAGGAGGUCUAUCGAAUUUUCGGCGGAUGCCUCCAAA [C11A U46C] was tested, and the “self-cleavage kobs at 640 uM GlcN6P” value was less than 1e-05 s⁻¹.
AUAAAAGCGUCAGAACUACAGAAAUGUAGUCGACGAGGAGGAGGUUUAUCGUAUUUUCGGCGGAUGCCUCCAAA [C10U U31C A52U] was tested, and the “self-cleavage kobs at 640 uM GlcN6P” value was less than 1e-05 s⁻¹.
With AUAAAAGCGUCAGAACUACAGAAAUGUAGUUGACGAGGAGGAGGCUUAUCGAAUUUUCGGCGGAUGCAUCCAAA [C10U U45C C68A] the “self-cleavage kobs at 640 uM GlcN6P” value was less than 1e-05 s⁻¹.
In the case of AUAAAAGCGCAAGAACUACAGAAAUGUAGUUGACGAGGAGGAGGUGUAUCGAAUUUUCGGGGGAUGCCUCCAAA [C11A U46G C61G], the “self-cleavage kobs at 640 uM GlcN6P” value is reported as less than 1e-05 s⁻¹.
AUAAAAGCGCAAGAACUACAGAAAUGUAGUUGACGACGAGGAGGUUUAUCGAAUUUUCGGCGGAGGCCUCCAAA [C11A G37C U65G] was tested, and the “self-cleavage kobs at 640 uM GlcN6P” value was less than 1e-05 s⁻¹.
In the case of AUAAAAGCGUCAGAACUACAGAAAUGUAGUUGACGAGGAGGAGGUUGAUCUAAUUUCGGGCGGUUGCCUCCAAA [C10U U47G G51U U57C C58G A64U], the “self-cleavage kobs at 640 uM GlcN6P” value is reported as less than 1e-05 s⁻¹.
In the case of AUAAAAGCGCAAGAACUACAGAAAUGUAGUUGACGAGGAGGAGGUUUAUCGAAUUUUCGGCGAAUGCCUCCAAA [C11A G63A], the “self-cleavage kobs at 640 uM GlcN6P” value is reported as less than 1e-05 s⁻¹.
With AUAAAAGCGCAAGAACUACAGAAAUGUAGUUGACGAGUUGGAGGUUUAUCGAAUUUUCGACGGAUGCCUCCAAA [C11A G38U A39U G60A] the “self-cleavage kobs at 640 uM GlcN6P” value was less than 1e-05 s⁻¹.
With AUAAAAGCGUCAGAACUACAGAAAUGUAGUUGACGAGGAGGAGGUUUAACGAAUAUUCGGCGGAUGCCUCCAAA [C10U U49A U55A] the “self-cleavage kobs at 640 uM GlcN6P” value was less than 1e-05 s⁻¹.
With AUAAAAGCGCAAGAACUACAGAAAUGUAGUUGACGAUGAGGAGGUUUAUCGAAUUUUCGGCGGGUGCCUCCAAA [C11A G37U A64G] the “self-cleavage kobs at 640 uM GlcN6P” value was less than 1e-05 s⁻¹.
In the case of AUAAAAGCGCAAGAACUACAGAAAUGUAGUUGACGAGGAGGAGUUUUGUCGAAUUUUCGGAGGAUGCCUCCAAA [C11A G44U A48G C61A], the “self-cleavage kobs at 640 uM GlcN6P” value is reported as less than 1e-05 s⁻¹.

Variants of: B1
Assay: self-cleavage kobs at 2500 uM GlcN6P; higher = faster cleavage; RNA array
Conditions: with glucosamine-6-phosphate
How it was run: as §1
For AUAAAAGCGUCAGAACUACAGAAAUGUAGUUGACGAGGAGGAGGUAUAACGAAUUUUCGGCAGAUGCCUCCAAA [C10U U46A U49A G62A], the “self-cleavage kobs at 2500 uM GlcN6P” value was less than 1e-05 s⁻¹.
For AUAAAAGCGCAAGAACUACAGAAAUGUAGUUGACGAGGAGGAGGUUUAUCGAAGUUUCGGCGGAUGGCUCAAAA [C11A U54G C67G C71A], the “self-cleavage kobs at 2500 uM GlcN6P” value was 0.000224 ± 8.9e-05 s⁻¹.
For AUAAAAGCGCAAGCACUACAGAAAUGUAGUUGACGAGGAGGAGAUUUAUCGAAUUUUCGGCGGAUUCCUCCAAA [C11A A14C G44A G66U], the “self-cleavage kobs at 2500 uM GlcN6P” value was less than 1e-05 s⁻¹.
AUAAAAGCGCAAGAACUACAGAAAUGUAGUUGACGAGGGGGAGGUUUAUCGAAUUUUCGGCGGAUGCCUCCAAA [C11A A39G] was tested, and the “self-cleavage kobs at 2500 uM GlcN6P” value was 0.000121 ± 2.7e-05 s⁻¹.
For AUAAAAGCGCAAGAUCUACAGAAAUGUAGUUGACGAGGAGGAGGUUUAUCGAAUUUUCGGCGGCUGCCUCCAAA [C11A A15U A64C], the “self-cleavage kobs at 2500 uM GlcN6P” value was less than 1e-05 s⁻¹.
AUAAAAGCGCAAGAACUACAGAAAUGUAGUUGACGAGGUGGAGGCUUAUCCAAUUUUCGGUGGAUGCCUCCAAA [C11A A39U U45C G51C C61U] was tested, and the “self-cleavage kobs at 2500 uM GlcN6P” value was less than 1e-05 s⁻¹.
AUAAAAGCGCAAGAACUACAGAAAUGUAGUUGACGAGGAGGAGGUGUAUCGAAUUUUCGGGGGAUGCCUCCAAA [C11A U46G C61G] was tested, and the “self-cleavage kobs at 2500 uM GlcN6P” value was less than 1e-05 s⁻¹.
In the case of AUAAAAGCGCAAGAACUACAGAAAUGUAGUUGACGAGGAGGAGGUUUAUCGAAUUUUCGGCGAAUGCCUCCAAA [C11A G63A], the “self-cleavage kobs at 2500 uM GlcN6P” value is reported as less than 1e-05 s⁻¹.
With AUAAAAGCGCAAGAACUACAGAAAUGUAGUUGACGAGUUGGAGGUUUAUCGAAUUUUCGACGGAUGCCUCCAAA [C11A G38U A39U G60A] the “self-cleavage kobs at 2500 uM GlcN6P” value was less than 1e-05 s⁻¹.

Variants of: B1
Assay: self-cleavage kobs at 10000 uM GlcN6P; higher = faster cleavage; RNA array
Conditions: with glucosamine-6-phosphate
How it was run: as §1
In the case of AUAAAAGCGCAAGAACUACAGAAAUGUAGUUGACGAGGGGGAGGUUUAUCGAAUUUUCGGCGGAUGCCUCCAAA [C11A A39G], the “self-cleavage kobs at 10000 uM GlcN6P” value is reported as 0.000422 ± 7.8e-05 s⁻¹.
In the case of AUAAAAGCGCAAGAACUACAGAAAUGUAGUUGACGAGGAGGAGGUUUAUCGAAUUUUCGGCGAAUGCCUCCAAA [C11A G63A], the “self-cleavage kobs at 10000 uM GlcN6P” value is reported as less than 1e-05 s⁻¹.
